This test deals with human CD3 expressed on cells (Jurkat cells; human T-cells of PBMC) (human) (UniProt P09693). Put plainly: cell-based or functional assay.
Sequence of human CD3 expressed on cells (Jurkat cells; human T-cells of PBMC) (human) (chain, as listed by the source, chain 1 of 4): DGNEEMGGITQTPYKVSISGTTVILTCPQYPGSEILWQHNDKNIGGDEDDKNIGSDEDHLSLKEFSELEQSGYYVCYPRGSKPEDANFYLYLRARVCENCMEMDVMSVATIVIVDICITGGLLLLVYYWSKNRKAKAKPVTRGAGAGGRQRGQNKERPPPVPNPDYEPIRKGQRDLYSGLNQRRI
Sequence of human CD3 expressed on cells (Jurkat cells; human T-cells of PBMC) (human) (chain, as listed by the source, chain 2 of 4): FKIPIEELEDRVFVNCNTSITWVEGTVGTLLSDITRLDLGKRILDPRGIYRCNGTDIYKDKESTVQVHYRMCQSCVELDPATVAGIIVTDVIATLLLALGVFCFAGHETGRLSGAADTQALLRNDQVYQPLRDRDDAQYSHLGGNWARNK
Sequence of human CD3 expressed on cells (Jurkat cells; human T-cells of PBMC) (human) (P09693 23-182, chain 3 of 4): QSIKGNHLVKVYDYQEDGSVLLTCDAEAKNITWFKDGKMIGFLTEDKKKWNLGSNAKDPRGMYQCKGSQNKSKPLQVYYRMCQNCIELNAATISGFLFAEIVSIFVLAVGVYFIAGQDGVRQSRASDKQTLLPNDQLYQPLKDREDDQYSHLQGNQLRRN
Sequence of human CD3 expressed on cells (Jurkat cells; human T-cells of PBMC) (human) (P20963 22-164, chain 4 of 4): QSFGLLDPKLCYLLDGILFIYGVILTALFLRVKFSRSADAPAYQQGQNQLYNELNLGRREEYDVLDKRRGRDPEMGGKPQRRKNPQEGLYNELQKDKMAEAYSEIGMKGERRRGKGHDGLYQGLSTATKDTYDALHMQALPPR

B1: H1H5756B (antibody, human IgG1, V domains shown)
VH: EVQLVESGGGVVQPGRSLRLSCTASGFPFSRYGMHWVRQAPGKGLEWVTFIWYDGSNKYYADSAKGRFTITRDNSKNTVYLQMDSLRADDTAVYYCVRDQAALYYFDSWGQGTLVTVSS
VL: DIQMTQSPSSVSASVGDRVTITCRASQGISRWLAWYQQKPGKAPKLLISAASSLQSGVPSRFSGSGSGTDFTLTISGLQPEDFATYYCQKANSFPFTFGPGTKLEIKR
The molecule B1 yielded a U937 Cytotoxicity Human T-cells of 76.9 pM.

For the origin of these results see patent publication US20190127480A1.
